The values that follow are results of earlier work, collected in publication PMC3776556, “Crystal structures of the CPAP/STIL complex reveal its role in centriole assembly and human microcephaly” (eLife, 2013).

For series [1], the system named is human STIL. Particulars: ref Tang et al., 2011; cited from earlier work. From the text: Of particular interest in this regard is the putative centriolar CPAP–STIL complex, as mutations in both components result in MCPH ([Leal et al., 2003]; [Bond et al., 2005]; [Gul et al., 2006]; [Darvish et al., 2010]). CPAP and STIL are strictly required for centriole assembly: STIL at a very early stage ([Stevens et al., 2010b]; [Tang et al., 2011]; [Kitagawa et al., 2011a]; [Arquint et al., 2012]; [Vulprecht et al., 2012]) and CPAP slightly later ([Kirkham et al., 2003]; [Leidel and Gonczy, 2003]; [Basto et al., 2006]; [Kleylein-Sohn et al., 2007]; [Dobbelaere et al., 2008]; [Vulprecht et al ...

Series [2] relates to centrioles in human cells. Particulars: ref Kitagawa et al., 2011a; cited from earlier work. From the text:
The structures we report here rev ...

B1: E1235V: human CPAP with MCPH mutation E1235V (cited studies) (protein, UniProt Q9HC77 1-1338, looked up, variant E1235V)
Centrosomal P4.1-associated …: MFLMPTSSELNSGQNFLTQWMTNPSRAGVILNRGFPILEADKEKRAAVDISTSFPIKGTHFSDSFSFINEEDSLLEEQKLESNNPYKPQSDKSETHTAFPCIKKGPQVAACHSAPGHQEENKNDFIPDLASEFKEGAYKDPLFKKLEQLKEVQQKKQEQLKRQQLEQLQRLMEEQEKLLTMVSGQCTLPGLSLLPDDQSQKHRSPGNTTTGERATCCFPSYVYPDPTQEETYPSNILSHEQSNFCRTAHGDFVLTSKRASPNLFSEAQYQEAPVEKNNLKEENRNHPTGESILCWEKVTEQIQEANDKNLQKHDDSSEVANIEERPIKAAIGERKQTFEDYLEEQIQLEEQELKQKQLKEAEGPLPIKAKPKQPFLKRGEGLARFTNAKSKFQKGKESKLVTNQSTSEDQPLFKMDRQQLQRKTALKNKELCADNPILKKDSKARTKSGSVTLSQKPKMLKCSNRKSLSPSGLKIQTGKKCDGQFRDQIKFENKVTSNNKENVTECPKPCDTGCTGWNKTQGKDRLPLSTGPASRLAAKSPIRETMKESESSLDVSLQKKLETWEREKEKENLELDEFLFLEQAADEISFSSNSSFVLKILERDQQICKGHRMSSTPVKAVPQKTNPADPISHCNRSEDLDHTAREKESECEVAPKQLHSLSSADELREQPCKIRKAVQKSTSENQTEWNARDDEGVPNSDSSTDSEEQLDVTIKPSTEDRERGISSREDSPQVCDDKGPFKDTRTQEDKRRDVDLDLSDKDYSSDESIMESIKHKVSEPSRSSSLSLSKMDFDDERTWTDLEENLCNHDVVLGNESTYGTPQTCYPNNEIGILDKTIKRKIAPVKRGEDLSKSRRSRSPPTSELMMKFFPSLKPKPKSDSHLGNELKLNISQDQPPGDNARSQVLREKIIELETEIEKFKAENASLAKLRIERESALEKLRKEIADFEQQKAKELARIEEFKKEEMRKLQKERKVFEKYTTAARTFPDKKEREEIQTLKQQIADLREDLKRKETKWSSTHSRLRSQIQMLVRENTDLREEIKVMERFRLDAWKRAEAIESSLEVEKKDKLANTSVRFQNSQISSGTQVEKYKKNYLPMQGNPPRRSKSAPPRDLGNLDKGQAASPREPLEPLNFPDPEYKEEEEDQDIQGEISHPDGKVEKVYKNGCRVILFPNGTRKEVSADGKTITVTFFNGDVKQVMPDQRVIYYYAAAQTTHTTYPEGLEVLHFSSGQIVKHYPDGRKEITFPDQTVKNLFPDGQEESIFPDGTIVRVQRDGNKLIEFNNGQRELHTAQFKRREYPDGTVKTVYANGHQETKYRSGRIRVKDKEGNVLMDTEL
With B1, the “yeast-two-hybrid interaction with STIL” value in series [1] is given as “appeared to weaken this yeast-two-hybrid interaction”. For the same molecule, in series [2], the centriole duplication result is on record as “centriole duplication was compromised by both mutations”, the “centriole overgrowth on overexpression” value was “able to promote centriole overgrowth to a greater extent than the WT protein” and the “localisation of CPAP to the centriole” value is “did not effect the localisation of CPAP to the centriole”.
